Experimental data: patent US11472844B2, “Peptidomimetics, method of synthesis and uses thereof” (priority 2017, dated 2022)
Like-named read-outs stand apart in the source and are kept apart here.

Experiments:
living human neutrophils = test: Live microscopy of neutrophils infected with Shigella flexneri; assay type: cell-based; details: live cells
Procedure: Neutrophil infection. Human purified neutrophils were cultured in glass-bottom dishes (Mattek) for live fluorescent microscopy in a RMPI 1640 (Life Technologies) culture medium supplemented with 10% of heat inactivated Human Serum (Sigma-Aldrich). Neutrophils (5.10^5 cell/mL in 2 mL) were infected with exponentially-grown Shigella flexneri 5a pGFP at a Multiplicity Of Infection (MOI) 20 in RMPI 1640 (Life Technologies) culture medium supplemented with 10 mM Hepes (Life Technologies) at 37° C. Infected neutrophils were centrifuged at 2000 rpm for 10 min prior imaging.
Live epifluorescence microscopy. Viable neutrophils infected with S. flexneri pGFP were imaged on a Definite focus live microscope (Zeiss) equipped with a temperature control chamber (37° C.) and a 63× oil immersion objective. Images were acquired every 60 s. Z-stack images were taken with […] step-size increments. Obtained Z-stack images were processed with Fiji software to generate a Movie and the corresponding extracted images are shown in FIG. 16a.

human colonic mucus = test: Fluorescent labelling of human colonic mucus layer; assay type: binding; details: 1 μg/mL
Procedure: (§1) Colon explant surgical collection. In summary, human colon segments (ascending, descending, and sigmoid colon) were obtained from fully informed patients undergoing surgery for colon carcinoma and were analyzed anonymously. Patient written consent was obtained, according to the French bioethics law. None of the patients had undergone radiotherapy or chemotherapy. According to the pathologist's examination rules for the longitudinally bisected colon, a healthy segment of tissue, which was distant from the tumor region and devoid of metastatic cells, was removed. Tissues were processed according to the French Government guidelines for research on human tissues and the French Bioethics Act with the authorization no RBM 2009-50.
Fixation and staining procedures. For microscopy studies, purified or cultured cells and polymerized lactoferrin were resuspended onto 24-well plates containing 12 mm coverslips in RMPI 1640+10 mM Hepes (when cultured in the autologous plasma) and centrifuged at 300×g for 10 min. Culture media were removed and cells were fixed in 4% Paraformaldehyde (PFA) for two hours. Fixed cells were washed three times in PBS+0.1% saponin (Sigma-Aldrich), prior immunolabeling with primary antibodies in the same buffer for 1 hour (Triton 0.1% can alternatively be used for cell permeabilization). After three additional washes in PBS+0.1% saponin, secondary antibodies and fluorescent markers were incubated for one hour. […]
(§2) Antibodies, fluorescent markers. For immunofluorescence assay, lactoferrin was detected with a mouse anti-lactoferrin primary monoclonal antibody (Hycult biotech, clone 265-1K1, 1:50 dilution) and an anti-mouse-FITC conjugated secondary antibody (1:1000). Nuclei were detected with DAPI (Life Technologies), Lyophilized MUB40 peptides (MUB40#1 (SEQ ID NO: 3)-Cy5, MUB40#2 (SEQ ID NO: 4)-Cy5, MUB40#3 (SEQ ID NO: 5)-Cy5, MUB40#4 (SEQ ID NO: 6)-Cy5, MUB40#1 (SEQ ID NO: 3)-Dylight, RI-MUB40 (SEQ ID NO: 2)-Cy5, and RI-MUB40 (SEQ ID NO: 2)-Biotin) were solubilized in a phosphate buffer pH8 at a 1 mg/mL concentration and used at a 1:1000 dilution. […]

[1] = test system: colonic mucinous carcinoma; test: Mucinous carcinoma immunofluorescent staining; parameters: species or system human; details: together with anti-Muc2 antibody, 1 μg/mL
Procedure: FIG. 3. Mucinous carcinoma immunofluorescent staining with MUB40 #1 (SEQ ID NO: 3)-Cy5 (MUB40-Cy5) and anti-Muc2 antibody (with a secondary antibody conjugated with FITC).
Muc2 was stained with an anti-Mucin2 antibody (green). Tissue was additionally stained with MUB40-Cy5 (1 μg/mL, magenta). DNA was stained with Dapi (blue).

trypsin = trypsin (Sus scrofa, UniProt P00761); details: trypsin digestion, 37°C, pH8, followed up to 24 h
Chain of trypsin (P00761 9-231): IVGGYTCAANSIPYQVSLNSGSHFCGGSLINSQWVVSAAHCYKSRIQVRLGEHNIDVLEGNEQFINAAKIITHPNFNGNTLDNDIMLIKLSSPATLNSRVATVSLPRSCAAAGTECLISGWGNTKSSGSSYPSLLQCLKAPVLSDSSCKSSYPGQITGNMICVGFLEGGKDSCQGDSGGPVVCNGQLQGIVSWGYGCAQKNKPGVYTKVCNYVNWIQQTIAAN
Procedure: Trypsin proteolysis. MUB40 (SEQ ID NO: 3)-Cy5 and RI-MUB40 (SEQ ID NO: 2)-Cy5 were dissolved in 50 mM ammonium bicarbonate, pH 8. Prior to digestion and owing to the propensity of maleimide derivatives to undergo ring-opening in a basic environment (Fontaine et al., 2015), we incubated both peptides at 37° C. overnight. Ring-opening completion was checked before trypsin addition. […] Lyophilized trypsin (Thermo scientific) was reconstituted using 50 mM acetic acid, diluted with 50 mM ammonium bicarbonate and added to the peptide solution so as to obtain a final peptide concentration of 0.25 mg/mL and a protease to protein ratio of 1:20 (w/w). Samples were directly incubated on the injection sampler thermostated at 37° c. HPLC and LC-MS analyses were performed as previously described above, applying a 15% to 40% linear gradient of acetonitrile in 10 mM ammonium acetate over 20 minutes.
Hydrolysis experiments were done in solution at 37° c., pH8 and monitored by HPLC by measuring the peak area of the remaining intact peptides.

[2] = Analytical gel filtration (size exclusion chromatography); assay type: physicochemical; details: for relative masses estimated from standard proteins' elution volume: 10 μg/ml in 20 mM phosphate buffer; for relative masses estimated from standard proteins' elution volume / experimental Mr: 150 mM NaCl, pH7.4; for experimental Mr: 20 mM phosphate buffer; for oligomeric organization: phosphate buffer, vs theoretical MW
Procedure: Size Exclusion Chromatography. Gel filtration was performed using an Agilent 1100 system (Agilent Technologies; Palo Alto, Calif., USA) and monitored by absorbance at 280 nm. MUB40 peptides were solubilized in the gel filtration buffer (20 mM phosphate buffer, 150 mM NaCl, pH7.4) at a concentration of 10 μg/ml, 100 μg/ml, or 1 mg/ml), separately injected on a Yarra™ 3μ SEC-2000 300×7.8 mm column (Phenomenex, Le Pecq, France), and eluted at a 0.5 ml/min flow rate. The column was calibrated with a mixture of standards proteins (ribonuclease A, 13.7 kDa; carbonic anhydrase 29 kDa; ovalbumin 44 kDa; GE Healthcare) complemented with a custom synthetic peptide of our own library (peptide x, 5.1 kDa; Institut Pasteur). The logarithm of the molecular weights were plotted versus the corresponding partition coefficients (Kay=(Ve−Vo)/(Vc−Vo); Ve, elution volume; Vo, void volume; Vc, geometric column volume), giving log(Mr)=2,3108−2,2361Kav as a calibration curve equation.

[3] = test system: Colonic goblet cell granules; test: Fluorescent labelling of colonic goblet cell granules on fixed slides; assay type: cell-based, human; details: 1 μg/mL
Procedure: as §1, §2

[4] = Coïc et al., 2012; cited from earlier work

With `CC[C@@H](C)[C@@H](NC(=O)[C@@H](CCCCN)NC(=O)[C@@H](CCCCN)NC(=O)[C@@H](Cc1ccccc1)NC(=O)[C@@H](CCC(=O)O)NC(=O)CNC(=O)[C@@H](CC(=O)O)NC(=O)CNC(=O)[C@@H](Cc1ccc(O)cc1)NC(=O)[C@@H](CCC(=O)O)NC(=O)[C@@H](CC(C)C)NC(=O)[C@@H](Cc1ccccc1)NC(=O)[C@@H](CCCCN)NC(=O)[C@@H](CC(=O)O)NC(=O)[C@@H](CC(N)=O)NC(=O)[C@@H](Cc1ccccc1)NC(=O)[C@H]1CCCN1C(=O)[C@@H](C)NC(=O)CNC(=O)[C@@H](CCC(=O)O)NC(=O)[C@@H](CCCCN)NC(=O)[C@@H](Cc1ccccc1)NC(=O)[C@@H](CC(=O)O)NC(=O)[C@@H](CC(N)=O)NC(=O)[C@@H](CC(=O)O)NC(=O)[C@@H](CC(=O)O)NC(=O)[C@H](NC(=O)[C@@H](CC(N)=O)NC(=O)[C@@H](CC(=O)O)NC(=O)[C@@H](CCC(N)=O)NC(=O)[C@@H](Cc1ccccc1)NC(=O)[C@@H](Cc1ccc(O)cc1)NC(=O)[C@H](NC(=O)[C@H](NC(=O)[C@H](NC(=O)[C@@H](Cc1ccccc1)NC(=O)[C@@H](CS)NC(C)=O)[C@H](C)CC)C(C)C)[C@H](C)O)[C@H](C)O)C(=O)NCC(=O)N[C@H](CCC(=O)O)C(=O)N[C@H](C)C(=O)N[C@@H](C(N)=O)[C@H](C)O` [RI-MUB40] the “crossing of plasma membrane of living cells” value (living human neutrophils) was “do not cross plasma membranes” and the “labelling of / binding to human colonic mucus” value (human colonic mucus) was “validated”.

In the case of “MUB40#1: 40-amino acid L-peptide, MUB70 C-terminal part, with N-ter added cysteine; L counterpart of RI-MUB40 (CTAEGIKKFEGDGYELFKDNFPAGEKFDNDDTNDQFYTVIF; MUB40-1 probe with Cysteine at N-terminal extremity)”, the “labelling of colonic mucinous carcinoma” value [1] is reported as “similarly labelled”, the “degradation by trypsin (in words)” value (trypsin; listed as MUB40) is reported as “rapidly degraded” and the “degradation by trypsin (in words)” value (trypsin; listed as MUB40 #1) is reported as “almost completely degraded within 3 h”. The “relative masses estimated from standard proteins' elution volume” value (“relative masses estimated” for short) [2] was 15.9, the “experimental Mr” value [2] was 15.9 kDa and the oligomeric organization [2] was “trimer”.

In the case of “MUB40#2: overlapping 40-amino acid peptide covering the MUB70 sequence (CGYTDETIPYSTAEGIKKFEGDGYELFKDNFPAGEKFDNDD; MUB40-2 probe with Cysteine at N-terminal extremity)”, the “relative masses estimated” value [2] is reported as 22.0, the “experimental Mr” value [2] is reported as 22.0 kDa and the oligomeric organization [2] is reported as “tetramers”.

In the case of “MUB40#3: overlapping 40-amino acid peptide covering the MUB70 sequence (CDQMLRQDDLDGYTDETIPYSTAEGIKKFEGDGYELFKDNF; MUB40-3 probe with Cysteine at N terminal extremity)”, the “relative masses estimated” value [2] is reported as 20.5, the “experimental Mr” value [2] is reported as 20.5 kDa and the oligomeric organization [2] is reported as “tetramers”.

In the case of “MUB40#4: overlapping 40-amino acid peptide covering the MUB70 sequence (CVHVQYIDGETDQMLRQDDLDGYTDETIPYSTAEGIKKFEG; MUB40-4 probe with Cysteine at N terminal extremity)”, the “relative masses estimated” value [2] is reported as 20.4, the “experimental Mr” value [2] is reported as 20.4 kDa and the oligomeric organization [2] is reported as “tetramers”.

B1: MUB70-Cy5: MUB70 (SEQ ID NO: 11) conjugated to Cy5 (conjugate, listed as Lactobacillus reuteri)
chain: VHVQYIDGETDQMLRQDDLDGYTDETIPYSTAEGIKKFEGDGYELFKDNFPAGEKFDNDDTNDQFYTVIF
modifications: also: conjugated to Cy5 (site not given here)
In the case of B1, the “labelling of colonic goblet cell granules” value [3] is reported as “not the case”.

B2: MUB70: 70 AA peptidic marker of human colonic mucus from L. reuteri MUcus Binding Associated Domains (peptide, listed as Lactobacillus reuteri)
chain: VHVQYIDGETDQMLRQDDLDGYTDETIPYSTAEGIKKFEGDGYELFKDNFPAGEKFDNDDTNDQFYTVIF
For B2, the oligomeric organization [4] is given as “trimer”.
